Source: US20230190901A1 (published 2023)
Changes are numbered by the printed parent chain.

T1: MAGEC2 peptide on HLA-A*02 (human)
T1 peptide: ALIEVGPDHFCV

T2: MAGEC2 peptide on HLA-A*02 (human)
T2 peptide: FVYGEPREL

B1: TCR of SEQ ID NOs 30 and 31 (TCR, V domains shown)
Valpha: KQEVTQIPAALSVPEGENLVLNCSFTDSAIYNLQWFRQDPGKGLTSLLLIQSSQREQTSGRLNASLDKSSGRSTLYIAASQPGDSATYLCAVNEGSNYKLTFGKGTLLTVNP
Vbeta: NAGVTQTPKFRILKIGQSMTLQCTQDMNHNYMYWYRQDPGMGLKLIYYSVGAGITDKGEVPNGYNVSRSTTEDFPLRLELAAPSQTSVYFCASSYSSPHYGYTFGSGTRLTVV
B2: TCR of SEQ ID NOs 26 and 27 (TCR, V domains shown)
Valpha: KQEVTQIPAALSVPEGENLVLNCSFTDSAIYNLQWFRQDPGKGLTSLLLIQSSQREQTSGRLNASLDKSSGRSTLYIAASQPGDSATYLCAVVDSWGKLQFGAGTQVVVTP
Vbeta: NAGVTQTPKFQVLKTGQSMTLQCAQDMNHNSMYWYRQDPGMGLRLIHYSVGAGITDQGEVPNGYNVSRSTTEDFPLRLLSAAPSQTSVYFCASSPWGGATEAFFGQGTRLTVV
B3: TCR of SEQ ID NOs 28 and 29 (TCR, V domains shown)
Valpha: KQEVTQIPAALSVPEGENLVLNCSFTDSAIYNLQWFRQDPGKGLTSLLLIQSSQREQTSGRLNASLDKSSGRSTLYIAASQPGDSATYLCAVKGRGTYKYIFGTGTRLKVLA
Vbeta: NAGVTQTPKFRVLKTGQSMTLQCAQDMNHNSMYWYRQDPGMGLRLIYYSASEGTTDKGEVPNGYNVSRLNKREFSLRLESAAPSQTSVYFCASSYYGGSGAGYEQYFGPGTRLTVT
B4: TCR of SEQ ID NOs 36 and 37 (TCR, V domains shown)
Valpha: KQEVTQIPAALSVPEGENLVLNCSFTDSAIYNLQWFRQDPGKGLTSLLLIQSSQREQTSGRLNASLDKSSGRSTLYIAASQPGDSATYLCAVTGGTSYGKLTFGQGTILTVHP
Vbeta: NAGVTQTPKFRILKIGQSMTLQCTQDMNHNYMYWYRQDPGMGLKLIYYSVGAGITDKGEVPNGYNVSRSTTEDFPLRLELAAPSQTSVYFCASSYWAGVLTEAFFGQGTRLTVV
B5: TCR of SEQ ID NOs 32 and 33 (TCR, V domains shown)
Valpha: B2 Valpha with V93R, D94E, S95W, W96D, G97A, K98R, Q100M, A103D, V107L, T110K
Vbeta: NAGVTQTPKFQVLKTGQSMTLQCAQDMNHNSMYWYRQDPGMGLRLIYYSASEGTTDKGEVPNGYNVSRLNKREFSLRLESAAPSQTSVYFCASSLLRGWTEAFFGQGTRLTVV
B6: TCR of SEQ ID NOs 34 and 35 (TCR, V domains shown)
Valpha: KQEVTQIPAALSVPEGENLVLNCSFTDSAIYNLQWFRQDPGKGLTSLLLIQSSQREQTSGRLNASLDKSSGRSTLYIAASQPGDSATYLCAVTGNTPLVFGKGTRLSVIA
Vbeta: NAGVTQTPKFQVLKTGQSMTLQCAQDMNHEYMSWYRQDPGMGLRLIHYSVGAGITDQGEVPNGYNVSRSTTEDFPLRLLSAAPSQTSVYFCASSYSPYYEQYFGPGTRLTVT

Target: T1, MAGEC2 peptide on HLA-A*02
Assay: binding, other

binding result | Binder
recognises | B1
recognises | B2
recognises | B3

Target: T2, MAGEC2 peptide on HLA-A*02
Assay: binding, other

binding result | Binder
recognises | B4
recognises | B5
recognises | B6
